For the test, the target named is sodium taurocholate co-transporting receptor (NTCP), expressed on HepG2 cells (human) (UniProt Q14973). Nature of the test: cell-based or functional assay.
UniProt Q14973, sequence (Q14973 whole entry): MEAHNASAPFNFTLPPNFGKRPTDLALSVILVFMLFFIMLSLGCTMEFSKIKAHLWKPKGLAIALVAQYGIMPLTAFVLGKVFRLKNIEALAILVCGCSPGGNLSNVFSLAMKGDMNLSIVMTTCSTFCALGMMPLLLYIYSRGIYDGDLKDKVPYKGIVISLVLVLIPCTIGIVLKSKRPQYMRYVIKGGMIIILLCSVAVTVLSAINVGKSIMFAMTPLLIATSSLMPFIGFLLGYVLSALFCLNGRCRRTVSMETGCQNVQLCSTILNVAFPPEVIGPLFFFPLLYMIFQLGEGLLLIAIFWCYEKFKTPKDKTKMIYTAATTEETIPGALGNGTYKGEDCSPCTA

In turn, “CAR-PreS1 construct (signal peptide-PreS1-CD8 hinge-CD8 Transmembrane-CD28-4-1BB-CD3zeta-T2A-EGFP), expressed on T cells” gave an IFN gamma expression of CAR-PreS1 T cells co-cultured with HepG2 cells expressing or lacking NTCP of 3 fold and a degranulation (CD107a expression) of CAR-PreS1 T cells co-cultured with HepG2 cells expressing or lacking NTCP of 2 fold.
